The assay addresses T1, SMC1 (human, UniProt Q14683 1-1233).
T1 sequence: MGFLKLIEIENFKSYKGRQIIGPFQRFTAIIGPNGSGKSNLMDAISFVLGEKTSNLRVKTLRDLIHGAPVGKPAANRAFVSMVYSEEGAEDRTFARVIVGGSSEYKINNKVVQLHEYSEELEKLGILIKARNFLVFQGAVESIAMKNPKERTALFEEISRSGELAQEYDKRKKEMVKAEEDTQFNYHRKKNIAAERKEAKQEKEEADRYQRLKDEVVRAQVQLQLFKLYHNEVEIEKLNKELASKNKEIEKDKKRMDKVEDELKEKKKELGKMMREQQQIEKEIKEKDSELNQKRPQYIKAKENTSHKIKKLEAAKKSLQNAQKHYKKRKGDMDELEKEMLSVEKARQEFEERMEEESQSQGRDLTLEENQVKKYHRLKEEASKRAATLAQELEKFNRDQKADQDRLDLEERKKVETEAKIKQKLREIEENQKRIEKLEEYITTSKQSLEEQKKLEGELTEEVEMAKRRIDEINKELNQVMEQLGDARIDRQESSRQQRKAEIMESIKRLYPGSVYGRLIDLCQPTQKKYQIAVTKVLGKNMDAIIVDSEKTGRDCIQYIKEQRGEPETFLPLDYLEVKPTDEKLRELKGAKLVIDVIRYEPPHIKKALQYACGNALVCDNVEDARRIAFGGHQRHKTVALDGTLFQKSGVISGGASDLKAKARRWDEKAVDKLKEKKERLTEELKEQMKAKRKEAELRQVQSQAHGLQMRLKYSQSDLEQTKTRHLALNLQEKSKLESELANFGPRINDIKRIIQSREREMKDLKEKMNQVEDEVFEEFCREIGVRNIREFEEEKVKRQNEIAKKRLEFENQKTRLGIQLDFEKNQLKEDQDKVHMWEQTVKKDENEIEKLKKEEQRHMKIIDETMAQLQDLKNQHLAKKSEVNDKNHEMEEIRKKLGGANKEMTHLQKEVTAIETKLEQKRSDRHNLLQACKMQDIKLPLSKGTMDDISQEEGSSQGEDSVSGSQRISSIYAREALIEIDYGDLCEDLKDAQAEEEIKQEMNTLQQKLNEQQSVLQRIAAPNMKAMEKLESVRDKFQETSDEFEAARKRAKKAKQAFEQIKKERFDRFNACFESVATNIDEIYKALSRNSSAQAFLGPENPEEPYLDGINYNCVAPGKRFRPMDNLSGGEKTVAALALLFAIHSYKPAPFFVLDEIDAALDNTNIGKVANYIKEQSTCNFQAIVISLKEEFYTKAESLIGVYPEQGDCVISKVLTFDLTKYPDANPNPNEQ
The assay is described as follows: mass photometry.

B1: SMC3 with a C-terminal Flag tag (natural protein)
chain: MYIKQVIIQGFRSYRDQTIVDPFSSKHNVIVGRNGSGKSNFFYAIQFVLSDEFSHLRPEQRLALLHEGTGPRVISAFVEIIFDNSDNRLPIDKEEVSLRRVIGAKKDQYFLDKKMVTKNDVMNLLESAGFSRSNPYYIVKQGKINQMATAPDSQRLKLLREVAGTRVYDERKEESISLMKETEGKREKINELLKYIEERLHTLEEEKEELAQYQKWDKMRRALEYTIYNQELNETRAKLDELSAKRETSGEKSRQLRDAQQDARDKMEDIERQVRELKTKISAMKEEKEQLSAERQEQIKQRTKLELKAKDLQDELAGNSEQRKRLLKERQKLLEKIEEKQKELAETEPKFNSVKEKEERGIARLAQATQERTDLYAKQGRGSQFTSKEERDKWIKKELKSLDQAINDKKRQIAAIHKDLEDTEANKEKNLEQYNKLDQDLNEVKARVEELDRKYYEVKNKKDELQSERNYLWREENAEQQALAAKREDLEKKQQLLRAATGKAILNGIDSINKVLDHFRRKGINQHVQNGYHGIVMNNFECEPAFYTCVEVTAGNRLFYHIVDSDEVSTKILMEFNKMNLPGEVTFLPLNKLDVRDTAYPETNDAIPMISKLRYNPRFDKAFKHVFGKTLICRSMEVSTQLARAFTMDCITLEGDQVSHRGALTGGYYDTRKSRLELQKDVRKAEEELGELEAKLNENLRRNIERINNEIDQLMNQMQQIETQQRKFKASRDSILSEMKMLKEKRQQSEKTFMPKQRSLQSLEASLHAMESTRESLKAELGTDLLSQLSLEDQKRVDALNDEIRQLQQENRQLLNERIKLEGIITRVETYLNENLRKRLDQVEQELNELRETEGGTVLTATTSELEAINKRVKDTMARSEDLDNSIDKTEAGIKELQKSMERWKNMEKEHMDAINHDTKELEKMTNRQGMLLKKKEECMKKIRELGSLPQEAFEKYQTLSLKQLFRKLEQCNTELKKYSHVNKKALDQFVNFSEQKEKLIKRQEELDRGYKSIMELMNVLELRKYEAIQLTFKQVSKNFSEVFQKLVPGGKATLVMKKGDVEGSQSQDEGEGSGESERGSGSQSSVPSVDQFTGVGIRVSFTGKQGEMREMQQLSGGQKSLVALALIFAIQKCDPAPFYLFDEIDQALDAQHRKAVSDMIMELAVHAQFITTTFRPELLESADKFYGVKFRNKVSHIDVITAEMAKDFVEDDTTHG
In the case of B1, the binding result was “binds”.

Values taken from PMC8563363 (Cell, 2021).
